According to patent US20240279318A1 (NANJING LEGEND BIOTECH, published 2024):
Positions count from the first letter of the chain named.

B1: AS170036 VL1VH1-57H98I (scFv)
scFv: QSALTQPRSVSGSPGQSVTISCAGTSSDVGSENYVSWYQQHPGKAPKLMIYQVNKRASGVPDRFSGSKSGNTASLTISGLQAEDEADYYCASYRSSDINIVFGGGTKLTVLGGGGSGGGGSGGGGSEVQLVESGGGLVQPGGSLRLSCAASGFTFSSYAMSWVRQAPGKGLEWVSTINSGTGHPYYADSVKGRFTISRDNSKNTLYLQMNSLRAEDTAVYYCAKNFFDGSWFLGPPAMDYWGQGTLVTVSSHHHHHH
notes: also called 08-AS170036 VL1VH1-57H98I
B2: AS170036 VL1VH1-57K98Q (scFv)
scFv: B1 scFv with I98Q, H183K
notes: also called 12-AS170036 VL1VH1-57K98Q
B3: AS170036 VL1VH1-57M98I (scFv)
scFv: B1 scFv with H183M
notes: also called 14-AS170036 VL1VH1-57M98I
B4: AS170036 VL1VH1-98I108S (scFv)
scFv: B1 scFv with H183S, G234S
notes: also called 36-AS170036 VL1VH1-98I108S
B5: AS170036 VL1VH1-57K108A (scFv)
scFv: B1 scFv with I98H, H183K, G234A
notes: also called 25-AS170036 VL1VH1-57K108A
B6: AS170036 VL1VH1-57M108S (scFv)
scFv: B1 scFv with I98H, H183M, G234S
notes: also called 30-AS170036 VL1VH1-57M108S
B7: AS170036 VL1VH1-57H108D (scFv)
scFv: B1 scFv with I98H, G234D
notes: also called 23-AS170036 VL1VH1-57H108D
B8: AS170036 VL1VH1-57K108D (scFv)
scFv: B1 scFv with I98H, H183K, G234D
notes: also called 26-AS170036 VL1VH1-57K108D
B9: AS170036 VL1VH1-57K98I (scFv)
scFv: B1 scFv with H183K
notes: also called 11-AS170036 VL1VH1-57K98I
B10: AS170036 VL1VH1-98I108A (scFv)
scFv: B1 scFv with H183S, G234A
notes: also called 34-AS170036 VL1VH1-98I108A; 34-AS170036 VL1VH1-98I08A
B11: AS170036 VL1VH1-57K98F (scFv)
scFv: B1 scFv with I98F, H183K
notes: also called 10-AS170036 VL1VH1-57K98F
B12: AS170036 VL1VH1-57H108A (scFv)
scFv: B1 scFv with I98H, G234A
notes: also called 22-AS170036 VL1VH1-57H108A
B13: AS170036 VL1VH1-98F108D (scFv)
scFv: B1 scFv with I98F, H183S, G234D
notes: also called 32-AS170036 VL1VH1-98F108D
B14: AS170036 VL1VH1-57M108D (scFv)
scFv: B1 scFv with I98H, H183M, G234D
notes: also called 29-AS170036 VL1VH1-57M108D
B15: AS170036 VL1VH1-98Q108A (scFv)
scFv: B1 scFv with I98Q, H183S, G234A
notes: also called 37-AS170036 VL1VH1-98Q108A
B16: AS170036 VL1VH1-57H108S (scFv)
scFv: B1 scFv with I98H, G234S
notes: also called 24-AS170036 VL1VH1-57H108S
B17: AS170036 VL1VH1-57M98Q (scFv)
scFv: B1 scFv with I98Q, H183M
notes: also called 15-AS170036 VL1VH1-57M98Q
B18: AS170036 VL1VH1-98F108S (scFv)
scFv: B1 scFv with I98F, H183S, G234S
notes: also called 33-AS170036 VL1VH1-98F108S
B19: AS170036 VL1VH1-98I108D (scFv)
scFv: B1 scFv with H183S, G234D
notes: also called 35-AS170036 VL1VH1-98I108D
B20: AS170036 VL1VH1-98Q108D (scFv)
scFv: B1 scFv with I98Q, H183S, G234D
notes: also called 38-AS170036 VL1VH1-98Q108D
B21: AS170036 VL1VH1-57H98Q (scFv)
scFv: B1 scFv with I98Q
notes: also called 09-AS170036 VL1VH1-57H98Q
B22: AS170036 VL1VH1-57K108S (scFv)
scFv: B1 scFv with I98H, H183K, G234S
notes: also called 27-AS170036 VL1VH1-57K108S
B23: AS170036 VL1VH1-98Q108S (scFv)
scFv: B1 scFv with I98Q, H183S, G234S
notes: also called 39-AS170036 VL1VH1-98Q108S
B24: AS170036 VL1VH1-98F108A (scFv)
scFv: B1 scFv with I98F, H183S, G234A
notes: also called 31-AS170036 VL1VH1-98F108A
B25: AS170036 VL1VH1-57M108A (scFv)
scFv: B1 scFv with I98H, H183M, G234A
notes: also called 28-AS170036 VL1VH1-57M108A
B26: AS170036 VL1VH1-57M98F (scFv)
scFv: B1 scFv with I98F, H183M
notes: also called 13-AS170036 VL1VH1-57M98F
B27: LD97A (scFv)
scFv: B1 scFv with D97A, I98H, H183S
notes: AS170036 VL1VH1 scFv mutein
B28: LD97T (scFv)
scFv: B1 scFv with D97T, I98H, H183S
notes: AS170036 VL1VH1 scFv mutein
B29: LE32D (scFv)
scFv: B1 scFv with E32D, I98H, H183S
notes: AS170036 VL1VH1 scFv mutein
B30: LD97S (scFv)
scFv: B1 scFv with D97S, I98H, H183S
notes: AS170036 VL1VH1 scFv mutein
B31: LE32S (scFv)
scFv: B1 scFv with E32S, I98H, H183S
notes: AS170036 VL1VH1 scFv mutein
B32: LD97N (scFv)
scFv: B1 scFv with D97N, I98H, H183S
notes: AS170036 VL1VH1 scFv mutein
B33: LD97F (scFv)
scFv: B1 scFv with D97F, I98H, H183S
notes: AS170036 VL1VH1 scFv mutein
B34: LD97R (scFv)
scFv: B1 scFv with D97R, I98H, H183S
notes: AS170036 VL1VH1 scFv mutein
B35: LE32G (scFv)
scFv: B1 scFv with E32G, I98H, H183S
notes: AS170036 VL1VH1 scFv mutein
B36: LE32W (scFv)
scFv: B1 scFv with E32W, I98H, H183S
notes: AS170036 VL1VH1 scFv mutein; also called AS170036 VL1VH1-VLE32W
B37: LD97G (scFv)
scFv: B1 scFv with D97G, I98H, H183S
notes: AS170036 VL1VH1 scFv mutein
B38: LD97K (scFv)
scFv: B1 scFv with D97K, I98H, H183S
notes: AS170036 VL1VH1 scFv mutein
B39: LD97H (scFv)
scFv: B1 scFv with D97H, I98H, H183S
notes: AS170036 VL1VH1 scFv mutein

biological target: T1, AFP158/HLA-A*02:01 complex (human); assay: SPR, crude scFv captured, pMHC analyte;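 note: pMHC analyte injected at three concentrations, association phase of one hundred seconds, then running buffer for dissociation, rates fitted from both curves, KD derived from the rates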
T1 construct: flowed as analyte in SPR
Experimental: (§1) The experiment was carried out as follows. The crude scFv protein were captured onto the sensorchip. Different concentrations (320, 160, 40 nM) of AFP158/HLA-A*02:01 complex flowed over the sensorchip surface, and were allowed to bind the antibody fragment for 100 s followed by injection of the running buffer to allow dissociation of the complex. On-rate (kd) and off-rate (kd) were calculated based on association and dissociation curve, and were used to estimate the equilibrium dissociation constant (KD).
(§2) The crude scFv muteins were then subjected to SPR affinity measurement by the method mentioned above.

Binder | Kd | koff | kon
B1 | 18 nM | 0.0036 s⁻¹ | 200000 M⁻¹ s⁻¹
B2 | 16 nM | 0.0025 s⁻¹ | 160000 M⁻¹ s⁻¹
B3 | 40 nM | 0.013 s⁻¹ | 310000 M⁻¹ s⁻¹
B4 | 29 nM | 0.007 s⁻¹ | 240000 M⁻¹ s⁻¹
B5 | 10 nM | 0.0018 s⁻¹ | 180000 M⁻¹ s⁻¹
B6 | 33 nM | 0.0067 s⁻¹ | 200000 M⁻¹ s⁻¹
B7 | 9.6 nM | 0.002 s⁻¹ | 210000 M⁻¹ s⁻¹
B8 | 12 nM | 0.0022 s⁻¹ | 190000 M⁻¹ s⁻¹
B9 | 25 nM | 0.004 s⁻¹ | 160000 M⁻¹ s⁻¹
B10 | 11 nM | 0.0031 s⁻¹ | 280000 M⁻¹ s⁻¹
B11 | 19 nM | 0.004 s⁻¹ | 210000 M⁻¹ s⁻¹
B12 | 6.9 nM | 0.0014 s⁻¹ | 210000 M⁻¹ s⁻¹
B13 | 13 nM | 0.0057 s⁻¹ | 450000 M⁻¹ s⁻¹
B14 | 19 nM | 0.0055 s⁻¹ | 290000 M⁻¹ s⁻¹
B15 | 11 nM | 0.0028 s⁻¹ | 250000 M⁻¹ s⁻¹
B16 | 16 nM | 0.0022 s⁻¹ | 140000 M⁻¹ s⁻¹
B17 | 28 nM | 0.0067 s⁻¹ | 240000 M⁻¹ s⁻¹
B18 | 26 nM | 0.0086 s⁻¹ | 330000 M⁻¹ s⁻¹
B19 | 14 nM | 0.0053 s⁻¹ | 370000 M⁻¹ s⁻¹
B20 | 14 nM | 0.0045 s⁻¹ | 330000 M⁻¹ s⁻¹
B21 | 9.1 nM | 0.0017 s⁻¹ | 190000 M⁻¹ s⁻¹
B22 | 22 nM | 0.0026 s⁻¹ | 120000 M⁻¹ s⁻¹
B23 | 27 nM | 0.0057 s⁻¹ | 220000 M⁻¹ s⁻¹
B24 | 12 nM | 0.0039 s⁻¹ | 330000 M⁻¹ s⁻¹
B25 | 17 nM | 0.004 s⁻¹ | 240000 M⁻¹ s⁻¹
B26 | 24 nM | 0.0087 s⁻¹ | 360000 M⁻¹ s⁻¹

biological target: T2, AFP158/HLA-A*02:01 complex (human); assay: SPR, scFv captured, pMHC in flow;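 note: complex injected at several concentrations over crude scFv, association then running-buffer dissociation, KD estimated from kinetic on- and off-rate constants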
T2 construct: flowed over the chip in SPR; also called AFP158 pro
Experimental: as §1

Binder | Kd
B27 | 470 nM
B28 | 360 nM
B29 | 190 nM
B30 | 420 nM
B31 | 500 nM
B32 | 240 nM
B33 | 450 nM
B34 | 520 nM
B35 | 350 nM
B36 | 100 nM
B37 | 310 nM
B38 | 410 nM
B39 | 420 nM

biological target: T1, AFP158/HLA-A*02:01 complex; assay: SPR, fold vs AS170036 VL1VH1;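 note: crude scFv muteins immobilised on a sensor chip, peptide–MHC complex passed over at several concentrations, binding then buffer-driven dissociation, KD estimated from on- and off-rates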
Experimental: as §1, §2

Binder | Affinity increase
B1 | 12.6 fold
B2 | 13.9 fold
B3 | 5.6 fold
B4 | 7.7 fold
B5 | 22.5 fold
B6 | 6.8 fold
B7 | 23.5 fold
B8 | 18.9 fold
B9 | 9.1 fold
B10 | 20.1 fold
B11 | 11.8 fold
B12 | 32.5 fold
B13 | 17.6 fold
B14 | 11.8 fold
B15 | 20.5 fold
B16 | 14.2 fold
B17 | 8 fold
B18 | 8.6 fold
B19 | 15.8 fold
B20 | 16.3 fold
B21 | 24.8 fold
B22 | 10.1 fold
B23 | 8.5 fold
B24 | 19.1 fold
B25 | 13.6 fold
B26 | 9.3 fold

biological target: T2, AFP158/HLA-A*02:01 complex; assay: SPR, KD ratio to AS170036 VL1VH1;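 note: crude scFv captured on a sensor chip, peptide–HLA complex passed over at several concentrations, association then buffer dissociation, KD derived from on- and off-rates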
Experimental: as §1

Binder | Affinity increase
B27 | 0.5 fold
B28 | 0.7 fold
B29 | 1.3 fold
B30 | 0.6 fold
B31 | 0.5 fold
B32 | 1 fold
B33 | 0.5 fold
B34 | 0.5 fold
B35 | 0.7 fold
B36 | 2.4 fold
B37 | 0.8 fold
B38 | 0.6 fold
B39 | 0.6 fold

biological target: T2, AFP158/HLA-A*02:01 complex; assay: SPR, scFv captured, pMHC in flow; remark: another data set of the same source;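 note: complex injected at several concentrations over crude scFv, association then running-buffer dissociation, KD estimated from kinetic on- and off-rate constants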

Binder | Kd
B27 | 470 nM
B28 | 360 nM
B29 | 190 nM
B30 | 420 nM
B31 | 500 nM
B32 | 240 nM
B33 | 450 nM
B34 | 520 nM
B35 | 350 nM
B36 | 100 nM
B37 | 310 nM
B38 | 410 nM
B39 | 420 nM

biological target: T2, AFP158/HLA-A*02:01 complex; assay: SPR, KD ratio to AS170036 VL1VH1; remark: another data set of the same source;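 note: crude scFv captured on a sensor chip, peptide–HLA complex passed over at several concentrations, association then buffer dissociation, KD derived from on- and off-rates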

Binder | Affinity increase
B27 | 0.5 fold
B28 | 0.7 fold
B29 | 1.3 fold
B30 | 0.6 fold
B31 | 0.5 fold
B32 | 1 fold
B33 | 0.5 fold
B34 | 0.5 fold
B35 | 0.7 fold
B36 | 2.4 fold
B37 | 0.8 fold
B38 | 0.6 fold
B39 | 0.6 fold
